The text below walks through data of patent US6686450.

This data set deals with Cabin 1-14.
Sequence of Cabin 1-14 (chain, as listed by the source): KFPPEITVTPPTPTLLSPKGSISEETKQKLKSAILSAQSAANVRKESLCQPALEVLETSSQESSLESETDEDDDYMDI

On to “calcineurin (endogenous, Jurkat T cells)”, for which the “dephosphorylation of ΔNF-AT1 (Western blot gel shift) upon ionomycin with or without PMA” value is recorded as “Overexpression of Cabin 1-14 inhibited the dephosphorylation of ΔNF-AT 1 upon treatment with ionomycin in the presence or absence of PMA”.
